According to publication PMC9759335:
Where two headings read alike, the source gives them in different places.

How the values were obtained:
[1] = aggregate area of transfected HeLa cells; conditions: glycan lost; control: P0wt-EGFP
[2] = EGFP fluorescence in transfected HeLa cells; conditions: glycan lost; control: P0wt-EGFP
[3] = confocal EGFP imaging of HeLa cells; conditions: glycan changed form; control: untreated cells, same construct
HeLa adhesion assay = conditions: glycan changed form; control: untreated P0D61N cells

P0 D61N (mouse Mpz knock-in mutant): D61N (MpzD61N/− mice)
localisation_or_trafficking (N-glycosylation at N61): changes

P0 D61N (Myelin Protein Zero mutant): 750 μM N-butyl-deoxynojirimycin (NB-DNJ) on HeLa cells expressing D61N
localisation_or_trafficking (N-glycosylation at N61): increases

P0 D118N (Myelin Protein Zero mutant): D118N
localisation_or_trafficking (N-glycosylation at N118): no change

P0 D61N (mouse Mpz knock-in mutant): D61N (MpzD61N/+ mice)
expression_or_secretion (N-glycosylation at N61): no change

P0 D61N (Myelin Protein Zero mutant): D61N
localisation_or_trafficking (N-glycosylation at N61): decreases

P0 D109N (Myelin Protein Zero mutant): D109N
localisation_or_trafficking (N-glycosylation at N109): decreases

P0 K138N (Myelin Protein Zero mutant): K138N
localisation_or_trafficking (N-glycosylation at N138): decreases

B1: P0 (Myelin Protein Zero): N122S (protein)
parent chain: MAPGAPSSSPSPILAVLLFSSLVLSPAQAIVVYTDREVHGAVGSRVTLHCSFWSSEWVSDDISFTWRYQPEGGRDAISIFHYAKGQPYIDEVGTFKERIQWVGDPRWKDGSIVIHNLDYSDNGTFTCDVKNPPDIVGKTSQVTLYVFEKVPTRYGVVLGAVIGGVLGVVLLLLLLFYVVRYCWLRRQAALQRRLSAMEKGKLHKPGKDASKRGRQTPVLYAMLDHSRSTKAVSEKKAKGLGESRKDKK
other: homophilic cell adhesion, percent_of_wt [1]: no change
localisation_or_trafficking [2]: no change

B2: P0 (Myelin Protein Zero): T124A (protein)
parent chain: B1 parent chain
other: homophilic cell adhesion, percent_of_wt [1]: no change
localisation_or_trafficking [2]: no change

B3: P0 (Myelin Protein Zero): 750 μM NB-DNJ on P0wt (protein)
parent chain: B1 parent chain
localisation_or_trafficking [3]: no change

B4: P0 (Myelin Protein Zero): T124M (protein)
parent chain: B1 parent chain
other: homophilic cell adhesion, percent_of_wt [1]: no change
localisation_or_trafficking [2]: no change

B5: P0 (Myelin Protein Zero): 750 μM NB-DNJ on P0D61N (protein)
parent chain: B1 parent chain
other: homophilic cell adhesion (HeLa adhesion assay): increases

B6: P0 (Myelin Protein Zero): T124K (protein)
parent chain: B1 parent chain
localisation_or_trafficking [2]: no change
